Experimental data as given in PMC6078384 (Journal of structural biology, 2013).

Target: the molecule itself
Experiment: SEC

B1: ΔN71–AtTHIC (N-terminally truncated Arabidopsis thaliana THIC, HMP-P synthase, lacking the first 71 amino acids) (enzyme)
chain: not shown
stoichiometry N: 2
